Data on 11 molecules can be found in US20210388087A1 (Chugai, published 2021).

T1: Human CD3eg linker (human)
T1 construct: Single chain: CD3 epsilon and gamma subunits joined by a 29-mer linker, Flag-tag at the C-terminus; also called recombinant human CD3
T1 chain: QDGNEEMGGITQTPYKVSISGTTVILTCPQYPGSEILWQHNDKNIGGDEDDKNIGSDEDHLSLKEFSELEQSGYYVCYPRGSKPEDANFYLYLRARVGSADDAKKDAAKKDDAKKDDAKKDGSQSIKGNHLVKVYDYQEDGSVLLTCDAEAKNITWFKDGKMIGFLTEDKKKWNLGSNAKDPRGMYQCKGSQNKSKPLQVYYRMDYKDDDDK

T2: cyno CD137 (cynomolgus monkey, UniProt Q07011 24-186 (human entry), limits assumed)
T2 construct: also called cynomolgus monkey CD137
T2 chain: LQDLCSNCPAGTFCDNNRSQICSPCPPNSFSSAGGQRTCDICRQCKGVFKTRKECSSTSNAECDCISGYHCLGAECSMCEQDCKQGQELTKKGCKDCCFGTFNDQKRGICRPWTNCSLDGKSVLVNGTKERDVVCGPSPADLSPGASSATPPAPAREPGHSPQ

B1: dBBDu186/L098 (antibody, V domains shown)
VH: QVQLVESGGGLVQPGRSLRLSCAASGFTFSNAWMHWVRQAPGKGLEWVAQIKDRSNQYATYYAPSVKGRFTISRDDSKNSIYLQMNSLKTEDTAVYYCHYVHYAQASTVLPAFGVDAWGQGTTVTVSS
VL: DIVMTQSPLSLPVTPGEPASISCAASEELVHINRYIFLHWYQQKPGQAPRLLIYKVSNRFIGVPDRFSGSGSGTDFTLKISRVEAEDVGVYYCAQGSQVPFTFGQGTKLEIK
notes: IgG format; constant regions not specified
B2: dBBDu167/L094 (antibody, V domains shown)
VH: B1 VH with R54K, S55G, Q57L, T60A, Q105S, S107G, T108G, V109G, A112G
VL: B1 VL with A24Y, V30L, Y35H, F37Y, S57Y, I61N, Q98S
notes: IgG format; constant regions not specified; also called dBBDu_167 dBBDu.L094
B3: dBBDu186/L108 (antibody, V domains shown)
VH: B1 VH
VL: B1 VL with A24R, A25T, V30L, Y35F, I36T, I61M, Q98A
notes: as for B1
B4: dBBDu193/L132 (antibody, V domains shown)
VH: B1 VH with A104S, Q105A, V109L, A112S
VL: B1 VL with A24Q, A25T, Y35F, I61S, S97T, Q98S
notes: IgG format; constant regions not specified; also called dBBDu_193 dBBDu.L132
B5: dBBDu189/L119 (antibody, V domains shown)
VH: B1 VH with V48I, T108S, V109L, A112S
VL: B1 VL with A24T, E27Q, Y35F
notes: as for B1
B6: dBBDu186/L106 (antibody, V domains shown)
VH: B1 VH
VL: B1 VL with A24S, A25T, V30L, Y35F, S57A, I61M
notes: as for B1
B7: dBBDu193/L127 (antibody, V domains shown)
VH: B1 VH with A104S, Q105A, V109L, A112S
VL: B1 VL with A24R, V30L, Y35H, S57Y, I61T, S97T, Q98S
notes: IgG format; constant regions not specified; also called dBBDu_193 dBBDu.L127
B8: dBBDu186/L100 (antibody, V domains shown)
VH: B1 VH
VL: B1 VL with A24S, S57Y, I61M, A94G, Q98S
notes: as for B1
B9: dBBDu189/L126 (antibody, V domains shown)
VH: B1 VH with V48I, T108S, V109L, A112S
VL: B1 VL with A24R, A25T, V30L, S57Q, I61S, Q98A
notes: as for B1
B10: anti-human CD137 antibody described in WO2005/035584A1 (abbreviated as B) (antibody, V domains shown)
VH: QVQLQQWGAGLLKPSETLSLTCAVYGGSFSGYYWSWIRQSPEKGLEWIGEINHGGYVTYNPSLESRVTISVDTSKNQFSLKLSSVTAADTAVYYCARDYGPGNYDWYFDLWGRGTLVTVSS
VL: EIVLTQSPATLSLSPGERATLSCRASQSVSSYLAWYQQKPGQAPRLLIYDASNRATGIPARFSGSGSGTDFTLTISSLEPEDFAVYYCQQRSNWPPALTFGGGTKVEIK
notes: Control antibody; also called control anti-CD137 antibody
B11: H183/L072 with V94Y (Kabat) in VL dBBDu072L (antibody, name in Kabat numbering, V domains shown)
VH: B1 VH with R54K, S55G, Q57A, T60A, Q105S
VL: B1 VL with A24Q, E27Q, I32M, Y35N, I36T, F37Y, I61P, S97T, Q98S, V99Y
notes: Single-mutation variant of H183L072

Numbering of substitutions follows the chain as printed. In names and notes the source's numbering stands.

The first experiment concerns the target T3, biotin-labeled human CD137 fused to human IgG1 Fc fragment (human, biotin-labeled).
T3 construct: also called human CD137-Fc; biotin-human CD137-Fc; not shown: human IgG1 Fc fragment
Nature of the experiment: competitive ELISA on biotin-human CD137-Fc; free CD3e vs free Fc.
B1: the Signal decrease was 86.2%.

B2 gave a Signal decrease of 96.9%.

As for B3, the Signal decrease turned out to be 39.2%.

For B4, the Signal decrease amounted to 91%.

In the case of B5, the Signal decrease came out at 76.9%.

B6: the Signal decrease was determined as 68.7%.

For the molecule B7, the Signal decrease is 59.4%.

In turn, B8 registered a Signal decrease of 13%.

Molecule B9 came in with a Signal decrease of 87%.

The target in the next experiment is T4, human CD137-Fc (human, biotin-labeled).
T4 construct: if 90 already holds the Fc, drop the second piece; also called biotin-labeled human CD137 fused to human IgG1 Fc fragment; biotin-human CD137-Fc; not shown: human IgG1 Fc fragment
Nature of the experiment: bead ELISA on biotin-human CD137-Fc with 62.5 pmol free human Fc (control competitor).
Turning to B10, the ELISA signal was 184000.

For a further experiment, the target named is T1, Human CD3eg linker. Briefly: affinity relative to template H183/L072, single-mutation scan.
Take B11: the “fold change of affinity for CD3” value stood at 0.2 fold.

Another experiment has as its target T2, cyno CD137. Nature of the experiment: SPR Biacore T200, IgG captured on protein A, 25 C.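 Note: antigens diluted in ACES running buffer at pH 7.4 were flowed over antibodies held on a CM3 chip bearing amine-coupled protein A, with buffer alone serving as blank.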
B1 came in with a Kd of 134 µM and a koff of 0.00119 s⁻¹.

Turning to B2, the equilibrium dissociation constant (Kd) turned out to be 6.92 µM, the off-rate (koff) stood at 0.0748 s⁻¹ and the kon amounted to 10800 M⁻¹ s⁻¹.

The molecule B3 displayed a Kd of 16.1 µM, a koff of 0.00361 s⁻¹ and a kon of 225 M⁻¹ s⁻¹.

In the case of B4, the Kd stood at 757 µM and the dissociation rate constant (koff) is 0.0061 s⁻¹.

Regarding B5, binding was characterised by a dissociation constant (Kd) of 35.7 µM and the koff is 0.00122 s⁻¹.

Molecule B6 gave a Kd of 61.3 µM and an off-rate (koff) of 0.00126 s⁻¹.

B7 registered a dissociation constant (Kd) of 28.1 µM, a koff of 0.00316 s⁻¹ and a kon of 112 M⁻¹ s⁻¹.

B8: the affinity, expressed as Kd, was 70.4 µM and the koff amounted to 0.00208 s⁻¹.

In the case of B9, the dissociation constant (Kd) was determined as 3.06 µM, the koff worked out at 0.00247 s⁻¹ and the kon turned out to be 807 M⁻¹ s⁻¹.

The target in a further experiment is human CD137 (human, UniProt Q07011 24-186). Nature of the experiment: SPR Biacore T200, IgG captured on protein A, 25 C.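 Note: antigens diluted in ACES running buffer at pH 7.4 were flowed over antibodies held on a CM3 chip bearing amine-coupled protein A, with buffer alone serving as blank.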
Consider B1, for which the Kd came out at 2.31 µM, the koff was 0.000534 s⁻¹ and the kon was found to be 231 M⁻¹ s⁻¹.

As to B2, the Kd was 8.43 µM, the koff was 0.0102 s⁻¹ and the kon is 1210 M⁻¹ s⁻¹.

In turn, B3 registered a Kd of 2.41 µM, a koff of 0.00081 s⁻¹ and a kon of 335 M⁻¹ s⁻¹.

B4: binding was characterised by a dissociation constant (Kd) of 4.48 µM, the koff was determined as 0.00211 s⁻¹ and the kon came to 471 M⁻¹ s⁻¹.

In turn, B5 yielded a Kd of 2.71 µM, a koff of 0.000402 s⁻¹ and a kon of 148 M⁻¹ s⁻¹.

Molecule B6 returned a Kd of 3.44 µM, a koff of 0.000447 s⁻¹ and an on-rate constant (kon) of 130 M⁻¹ s⁻¹.

In the case of B7, the Kd is 3.3 µM, the off-rate (koff) came to 0.00145 s⁻¹ and the on-rate (kon) is 440 M⁻¹ s⁻¹.

B8 returned a Kd of 1.91 µM, an off-rate (koff) of 0.000746 s⁻¹ and a kon of 391 M⁻¹ s⁻¹.

In turn, B9 displayed a dissociation constant Kd of 0.513 µM, an off-rate (koff) of 0.000688 s⁻¹ and a kon of 1340 M⁻¹ s⁻¹.

The target in another experiment is human CD3 ed (human, UniProt P07766 23-126; P04234 22-105, limits assumed). Briefly: SPR Biacore T200, IgG captured on protein A, 25 C.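 Note: antigens diluted in ACES running buffer at pH 7.4 were flowed over antibodies held on a CM3 chip bearing amine-coupled protein A, with buffer alone serving as blank.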
In turn, B1 displayed a Kd of 1.88 µM, an off-rate constant (koff) of 0.0209 s⁻¹ and a kon of 11100 M⁻¹ s⁻¹.

In turn, B2 showed a Kd of 0.349 µM, an off-rate constant (koff) of 0.021 s⁻¹ and a kon of 60200 M⁻¹ s⁻¹.

As for B3, binding was characterised by a dissociation constant (Kd) of 3.01 µM, the dissociation rate constant (koff) was 0.0408 s⁻¹ and the kon was 13600 M⁻¹ s⁻¹.

In turn, B4 registered a dissociation constant Kd of 2.03 µM, a koff of 0.0201 s⁻¹ and a kon of 9890 M⁻¹ s⁻¹.

Molecule B5 displayed a Kd of 2.06 µM, a koff of 0.0258 s⁻¹ and an on-rate (kon) of 12500 M⁻¹ s⁻¹.

Turning to B6, binding was characterised by a dissociation constant (Kd) of 3.09 µM, the koff is 0.0318 s⁻¹ and the association rate constant (kon) is 10300 M⁻¹ s⁻¹.

The molecule B7 gave a Kd of 1.51 µM, a koff of 0.0191 s⁻¹ and a kon of 12600 M⁻¹ s⁻¹.

B8 displayed a dissociation constant Kd of 3.36 µM, an off-rate (koff) of 0.0546 s⁻¹ and an on-rate constant (kon) of 16200 M⁻¹ s⁻¹.

B9 had a Kd of 2.57 µM, a dissociation rate constant (koff) of 0.0281 s⁻¹ and a kon of 10900 M⁻¹ s⁻¹.

Another experiment has as its target T4, human CD137-Fc. Nature of the experiment: bead ELISA on biotin-human CD137-Fc with 62.5 pmol free CD3e peptide as competitor.
With B10, the ELISA signal amounted to 183000.

The target in another experiment is T4, human CD137-Fc. Nature of the experiment: bead ELISA on biotin-human CD137-Fc with 125 pmol/well free CD3e peptide as competitor.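 Note: Streptavidin-coated magnetic beads in blocking buffer as the capture surface, well signal read as fluorescence 2 min after adding APS-5 substrate.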
In turn, B10 came in with an ELISA signal of 98100.

A further experiment has as its target T3, biotin-labeled human CD137 fused to …. Nature of the experiment: competitive ELISA on biotin-human CD137-Fc; free Fc 62.5 pmol (control).
Consider B1, for which the ELISA signal came out at 115000.

B2 showed an ELISA signal of 141000.

The molecule B3 returned an ELISA signal of 83600.

B4 came in with an ELISA signal of 116000.

For the molecule B5, the ELISA signal is 88100.

As for B6, the ELISA signal came to 9860.

Take B7: the ELISA signal was 6080.

On to B8, for which the ELISA signal stood at 102000.

Regarding B9, the ELISA signal stood at 75100.

The next experiment addresses T4, human CD137-Fc. Nature of the experiment: bead ELISA on biotin-human CD137-Fc, free CD3e peptide vs free Fc.
Consider B10, for which the Signal decrease came out at 0.94%.

A further experiment addresses T4, human CD137-Fc. Briefly: bead ELISA on biotin-human CD137-Fc, 125 vs 0 pmol free CD3e peptide.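 Note: target captured on streptavidin-coated magnetic beads, signal read as fluorescence 2 min after adding APS-5 substrate.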
Take B10: the Signal decrease stood at 1.26%.

Another experiment concerns the target T3, biotin-labeled human CD137 fused to …. Nature of the experiment: competitive ELISA on biotin-human CD137-Fc; competitor free CD3e 62.5 pmol.
Consider B1, for which the ELISA signal was 15900.

For B2, the ELISA signal was 4370.

In the case of B3, the ELISA signal was 50800.

B4 gave an ELISA signal of 10400.

For the molecule B5, the ELISA signal is 20400.

On to B6, for which the ELISA signal was found to be 3090.

The molecule B7 displayed an ELISA signal of 2470.

In turn, B8 yielded an ELISA signal of 88900.

In turn, B9 gave an ELISA signal of 9750.

In the next experiment the target is T4, human CD137-Fc. Nature of the experiment: bead ELISA on biotin-human CD137-Fc, 0 pmol free CD3e peptide.
The molecule B10 displayed an ELISA signal of 99400.
